The results in this text go back to patent US20230137032A1 (GlaxoSmithKline, published 2023).

Experiment [1] concerns the target T1, human BCMA expressed on cells (human, UniProt Q02223 1-184).
T1 construct: whole, on cells; also called human BCMA HEK293; ARH77-hBCMA 10B5 BCMA expressing transfectant cells
T1 sequence (looked up): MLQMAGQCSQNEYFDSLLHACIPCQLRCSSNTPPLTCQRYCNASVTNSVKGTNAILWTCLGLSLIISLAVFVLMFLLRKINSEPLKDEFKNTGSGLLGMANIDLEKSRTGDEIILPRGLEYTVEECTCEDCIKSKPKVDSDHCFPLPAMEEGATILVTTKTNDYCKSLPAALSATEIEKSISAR
Description: FACS on H929 multiple myeloma cells, PE anti-mouse IgG. As for the experimental part: Cells were incubated for 20 mins at room temperature (RT) and then washed with FACS buffer (PBS+0.5% BSA+0.1% sodium azide) to remove unbound antibody. Cells were incubated with a secondary PE labelled anti-mouse IgG antibody for 15 minutes at RT and then washed with FACS buffer to remove unbound antibody. Cells were analysed by FACS to detect antibody bound to the cells.

For experiment [2], the target named is T2, recombinant cyno BCMA, in house material (cyno, UniProt A0A2K5UD97 4-52).
T2 construct: also called Cyno in house BCMA
T2 sequence (A0A2K5UD97 entry or part of it): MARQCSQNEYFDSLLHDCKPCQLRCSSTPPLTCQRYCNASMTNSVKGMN
Description: ProteOn SPR run 2, antibody captured on Protein A, 25C.

The target of experiment [3] is T3, recombinant human BCMA, in house material (human, UniProt Q02223 4-53, limits assumed).
T3 construct: also called Human in house BCMA; In house human BCMA
The experiment is described as above.

B1: murine S307118G03 (antibody, IgG2a, V domains shown)
VH: EVQLQQSGPELVKPGASVKISCKASGYTFTDYYMKWVKQSHGKSLEWIGEIYPNNGGITYNQKFKGKATLTVDKSSSTAYMELRSLTSEDSAVYYCANGYEFVYWGQGTLVTVSA
VL: DIQMTQTASSLSASLGDRVTISCSASQGISNYLNWYQQKPDGTVKLLIYYTSSLHSGVPSRFSGSGSGTDYSLTISNLEPEDIATYYCQQYSKLPWTFGGGTKLEIKR
notes: Murine hybridoma antibody; also called S307118G03 (murine parental mAb)
Consider B1, for which the binding result in experiment [1] is on record as “binds”.

B2: S307118G03 H5L1 (antibody, human IgG1, kappa, V domains shown)
VH: QVQLVQSGAEVKKPGSSVKVSCKASGYTFTDYYMKWVRQAPGQGLEWIGEIYPNNGGITYNQKFKGRATLTVDKSTSTAYMELSSLRSEDTAVYYCANGYEFDYWGQGTLVTVSS
VL: DIQMTQSPSSLSASVGDRVTITCSASQGISNYLNWYQQKPGKAPKLLIYYTSSLHSGVPSRFSGSGSGTDYTLTISSLQPEDFATYYCQQYSKLPWTFGQGTKLEIKR
notes: Humanised, human IgG1 kappa; also called S307118G03 humanised H5L1
Turning to B2, the binding result in experiment [2] was “no binding”; in experiment [3], “no binding (tested: up to 256 nM)”.
